Experimental findings from patent US7118737 are described below.

The test has as its target CCR5 (UniProt P51681). As to the kind of experiment: cell-based or functional assay.
Chain of UniProt P51681 (P51681 whole entry): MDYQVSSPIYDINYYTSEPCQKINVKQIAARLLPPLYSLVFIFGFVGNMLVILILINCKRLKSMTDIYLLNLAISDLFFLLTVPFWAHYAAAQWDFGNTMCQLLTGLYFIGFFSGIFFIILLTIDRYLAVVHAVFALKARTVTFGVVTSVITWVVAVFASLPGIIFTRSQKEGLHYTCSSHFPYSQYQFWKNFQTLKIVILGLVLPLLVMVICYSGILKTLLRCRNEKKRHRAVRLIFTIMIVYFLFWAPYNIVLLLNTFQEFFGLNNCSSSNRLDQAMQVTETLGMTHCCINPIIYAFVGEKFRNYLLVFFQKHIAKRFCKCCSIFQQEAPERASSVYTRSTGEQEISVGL

With “AOP-RANTES (2-68) (from UniProt P13501 25-91) (ligand)”, the EC50, inhibition of HeLa P4-CCR5/HeLa-Env-ADA cell fusion (β-galactosidase reporter) is 1.81 nM.
As for “NNY-RANTES (2-68) (from UniProt P13501 25-91) (ligand)”, the figure is 0.323 nM.
